# In the nanobody polyreactivity screen of Harvey et al. (2022):
# Assay: yeast display, Sf9 membrane polyspecificity reagent, FACS + sequencing; frameworks hold sequencing errors
# Summary of the method: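 Galactose-induced (36–48 hours) yeast carrying a synthetic nanobody display library were exposed to 10% biotinylated, detergent-solubilized Sf9 membrane reagent at 4 °C for 1 hour. FACS followed streptavidin microbead enrichment, using low and high (top ~1%) gates for expression (anti-HA) and reagent binding (streptavidin). Colony PCR, MiSeq 2 × 250 sequencing and CDR-length filtering followed. Labels for polyreactivity reflect the gate of origin.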
row,Sequence,polyreactivity (PSR sort gate)
1,QVQLVESGGGLVQAGGSLRLSCAASGRTFADFTMGWYRQAPGKERELVAAISFSGGSTYYADSVKGRFTISRDNAKNTVYLHMNSLKPEDTAVYYCAAGHKRRAPRYYDWGQGTQVTVSS,high polyreactivity
2,QVQLVESGGGLVQAGGSLRLSCAASGRIFSSYAMGWYRQAPGKERELVAAITRGGSTYYADSVKGRFTISRDNAKNTVYLQMNSLKPEDTAVYYCNAVGFYAANTFDYWGQGTQVTVSS,high polyreactivity
3,QVQHVESGGGLVQAGGSLRLSCAASGRIFGYYAMGWYRQAHGKQSELVAAITSGGRTNYADSVKGRFTISRDNAKNTVYLQMNSLKPEDTAVYYCAKEYPRYSSPYDYWGQGTQVTVSS,low polyreactivity
4,QVQLVESGGGLVQAGGSLRLSCAASGIIFSDYAMGWYRQAPGKERELVAAITGGGSTYYADSVKGRFTISPDNAQNTVYLQMNSLKPEDTSVYYCNTDAWHETPVSGYSWGQCTQVTVSS,low polyreactivity
5,QVQLVESGGGLVQAGGSLRLICAASGSIFGYNAMVWYRQAPGKERELVAVINASGASTYYADSVKGRFTISRDNAKNTVYLHMNSLKPEDTAVYSCAKDPFPFPGGDYWGQGTQVTVSS,low polyreactivity
6,QVQLVESGGGLLQAGGSLRLSCAASGRTSGRYAMGWYRQAPGKERELVAAISSGGRTSYADSVKGRFTISRDNAQNTVDLQMISLKPEDTAVYYCAAVFVLARAYNYWGQGTLVTVSS,high polyreactivity
7,QVQLVESGGGLVQAGGSLRLSCAASGSIFLYNTMGWYRQAPGKERELVAAITYSGGSTYYADSVKGRFTISRDNAKNTVYLQMNSLKPEDTAVYYCAARRLPRKERKLYYWGQGTQVTVSS,high polyreactivity
8,QFQLVESGGGLVQAGGILRLSCAASGITFRIYAMGWYRQAPGKERELVAGISSSGSTNYADSVKGRFTISRESAKNTVYLQMNSLKPEDTAVYYCAADAFYKFDYWGQGTQVTESS,high polyreactivity
9,QVQLVESGGGLVQAGGSLRLSCAASGSIFSRNAMGWYRQARGKERELVAAISWRGGSTYYADSVKGRFTISRDNAKNTGYLQMNSLKPEDTAVYYCAAVYQFIKWGDRYEYWGQGTQVTVSS,high polyreactivity
10,QVQLVESVGGLVQGGGSLRLSCAASGINFYRYALGWYRQAPGKERELVAAINRSGDSTYYADSVKGRFTISRDNAKNTVYLQMNSLKPEDTAVYSCAAQHSIYRNPGLDDYWGQGNQVTVSS,high polyreactivity
11,QVQLVESGGGLVQAGGSLRLSCAASGRTFGLNVMGWYRQAPGKERELVATISWSGGTTYYADSVKGRFTISRDYAKNTVYLQMNSLKPEDTAVYYCNRQVTWYPTGGFWGQGTQVTVSS,low polyreactivity
12,QVQLVESGGGLVQAGGSLRFSCAASGSTFYGYVMGWYRQAPGKERELVAAISSSGGRTYYADSVKGRFTIARDYAKNTVYLQMNSLKPEDTAVYYCNTVQRYSTHYDYWGQGTQVTVSS,high polyreactivity
13,QDQLVESGGGLVQAGGSLRLSCAASGFTFYAYAMGWYRQAPGKERELVAAITGRGGSTYYADSVKGRFTISRDNAKNTVYLPLNSLKPEDTAVYDCNKVKKSDKFNTVSNDYWGQGTQVTVSS,high polyreactivity
14,QVQLVESGGGLVQAGGSLRLSCAASGFTFPGYAMGWYRQAPGKERELVAAISYSSGSTYYADSVKGRFTISRDNAKNTVYLQMNSLKPEDTAVYYCAAYFSPVGFQYDYWGQGTQVTVSS,high polyreactivity
15,QVQLVESGGGLVQAGGSLRLSCAASGSTLDRNTMGWYRQAPGKERELVAAITWSGGRTYYADSVKGRFTITRDNAKNTVYLQMNSLKPEDTAVYYCNKDYWKRPVDEYDYWGQGTQVTVSS,high polyreactivity
16,QVQLVESGGGLVQAGGSLRLSCPASGSIFYTNAMGWYRQAPVKERELVAAISRGGSTKYADSVKGRFTISRDNAKNSVYLQMNSLKPEDTAVYYCAARGTASRYLYIPYYYWGQGTQVTVSS,high polyreactivity
17,QVQLVESGGGLVQAGGSLRISCAASGFTFYYNAMGCYRQAPVKERELVAIRFRGGNTYYAYSVKGRFTISRDNAKITVYLQMNSLKPEDTAVYYCTADDRGSTYVYFDYWGQGTQVTVSS,low polyreactivity
18,QVQLVESGGGLVQAGGSLRLSCAASGFIFYAYAMGWYRQAPGKEREFVAAISARGGNTYYADSVKGRFTISRDNAKNSVYLQMNSLKPEDTAVYYCAIYGGYYYLSGYYYWGQGTQVTVSS,high polyreactivity
19,QVQLVESGVGLVQAGGSLRLSCAASGSIFFYAMGWYRQAPGKERELVADITYTGGSKYADSVKGRFTISRDNAKNTVYLQMNSLKPEDTAVYYCAKLDGGLFDYWGQGTQVTVSS,low polyreactivity
20,WLLLMGWYRQPPGEERELVAGINDGASTNDADSVKGRFTISRDNARNTVYLKMNSLKPGDTAVYYCAGWQPVLIWFYYWGQGTQVTVSS,high polyreactivity
21,QVQLVESGGGLVQAGGSLRLSCAASGRTIAYNAMGWYRQAPGKERELVAAISWSGGSTYYADSVKGRFTISRDNAKNTVYLQMNSLKPEDTAVYYCAKRFGQYRYPYDYWGQGTQVTVSS,high polyreactivity
22,QVQLVESGGGLVQAGGSLRLSCAASGSIFVDNAMGWYRQAPGTERELVAAINWSGGSTYYADSVKGRFTISRDNAKNTVYLQMNSLKPEDTAVYYCIAARPGQTWDEQSWYDYWGQGTQVTVSS,low polyreactivity

row,Sequence,polyreactivity (PSR sort gate)
1,QVQLVESGAGLVQAGGSLRLSCAAYGSIFIIYAMGWYRQAPGKERELVAAINTSGTSTYYADSVKGRFTISRDNAKNTVYLQMNSLKPEDTAVYYCAAAGRRSYKYYYWGQGTQVTVSS,high polyreactivity
2,QVQLVESGGGLVQAGGSLRLSCAASGRIFYFYALGWYRQAPGKERDLVAAINIGGSTNYADSVKGRFTISRDNAKNTVYLQMNSLNPEDTAVYYCNAEAYSRSDYYRYDYWGQGTQVTVSS,low polyreactivity
3,QVQLVESGGGLVQAGGSIRLSCAASGRTAKRYAMGWYRQAPGKERELVAAISRGGGSTYYADSVKGRFTISRDNAKNTVYLQMNSLKPEDTAVYYCAADLNSYTRYDYWGQGTQVTVSS,high polyreactivity
4,QVQLVETGGGLVQAGGSLRLSCAASRSIFARNAMGWYRQAPGKERELVAAISWSGGRTYYADSVKGRFPISRVNAKNTVYLQMNSLKPEDTAVYYCATYTWWGQGTQVTVSS,high polyreactivity
5,QVQGVESGGGLVQAGGSLRLSCAASGLTFKENVMGWYRKAPGKERELVAAISTGASTYYADSVKGRFTISRDNANNTVYLQMNSLKPEDTAVYYCAAERWAQGYTYEYWGQGTQVTVSS,high polyreactivity
6,QVQLVESGGGLVKAGGSLGLSCAASGRTLRYYAMGWYRQAPRKERELVASISIGGSTYYADSVKGRFTISRDNAKNTVYLQMNSLKPEDTAVYYCATDYSNSGYGYWGQCTQVTVSS,low polyreactivity
7,QDQLVESGGGIVQAGGSLRLSCAASGFTFHNNVMGWNRQAPGKERELVATISKSGGSTYYADSVKGRFTISRDNAKNTVYLQMNSLKPEDTAVYYCAGRYRDYGRYGYWGQGTQVTVSS,high polyreactivity
8,QVQIVESGGGLVQAGGSLRISCAASGRIFRTYAMGWYRQAPGKERELVAAISSRGGSTSYADSVKGRFTISRDNEKNTVYLQLNSLKPEDTAVYYCARVGRNPVKYDYWGQGTQVTVSS,high polyreactivity
9,QVQLVESGGGLVQAGGSLRLSCAASGSTFYSYSMGWNRQAPGKERELVAAITKSGGSTYYADSVKGRFTISRDNAKNTVYLQMNSLKPEDTAVYYCAARQGVRMYWGQVTQVTVSS,high polyreactivity
10,QVHLVESGGGLVQAGGSLRLSCAATGSTFHYYAMGWYRQAPGKEMELVAAISSSGVSTYYADSVKGRFTISRDNAKNTVYLQMNSLKPEDTAVYYCNSASVFHYRWYYYWGHGTQVTVSS,high polyreactivity
11,QVQLVESGGGLVQAGGSLRLSCAASGRTFDDYAMGRYRQAPGKERELVAVITDNGGGTNYADSVKGRFTISRDNAKNTVYLQMNSLKPEDTAVYYCNAASDDFYPGRRTYGRDYWGQGTQVTVSS,low polyreactivity
12,QVQLVESGGGLVQAGGSLRLSCAASGFTFRLNAMGWYRQAPGPERELVAAITRSGGNTYYADSVKGRFTIPRDNAKNTVYLQMNSLKPEDTAVYYCAARYFYWFRPTEYYYWGQGTQLTVSS,high polyreactivity
13,QVQLVESVGGLVQAGGSLRLSCAASGFTFGRYAMGWYRQAPGKERELVAAISFSGGRTYYADSVKGRFTISRDNAKNTVYLQMNSLKPEDTAVYYCAARRRQEHVGRSSYARYDYWGQGTQVTVSS,high polyreactivity
14,QVQLVESGGGLVHAGGSLSLICAASGITFDVNAMGWYRQAPGKERELVAAITAGGNTYYADSVKGRFTISRDNAKNTVYLQMNSLKPEDTAVYYCAAVSTSLYWAGYDYWGQGTKVTVSS,low polyreactivity
15,QVQLVESGVGLVQAGGSLRLSCAASGLTFRPNAMGWYRQAPGKERELVASISFSGGSTYYADSVKGRFTISRDNAKNTVYLQMNSLKPEDTAVYYCAADVATTHELDYWGQGTQVTVSS,high polyreactivity
16,QVQLVESGGRLVQAGGSLLLSCDASGSIFRHYAMGWYRQAPWQERELVAAISAIGGSTYADSVKGRFTISRDNAKNTVYLQMNSLIPEDTGVYYCNARSYTSYVYHEAGEFDYWGQGTQVTVSS,low polyreactivity
17,QVQLVESGGGLVQAGGSLRISCAASGRTFFFNAMGWYRQAPGKERELVAAISRTGRTNYADSVKGRFTISRDHAKNTVYLQMNSLKPEDTAVYYCAKTSYYLFGYWGHGTQVTVSS,high polyreactivity
18,QVQLVESGGGLVQAGRSLRLSCPASGSTFYTNHMGWYRQAPGKERELVAAITSAGNTNYADSVKGRFTISRDNAKNTVYLQMNSLKPEDTAVYYYYYYQYDYWGQGTQVTVSS,low polyreactivity
19,QVQLVESGGGLVQAGGSLRLSCAASGSIFAVNTMGWYRQAPGKERELVAAISQRGSSTYYADSVKGRFTISRDNAKNTVYLQMNSLKPEDTAVYYCAKRFIYGRYNYWGQGTQVTVSS,high polyreactivity
20,QLHLVESGGGLVQAGGSLRLSCAASGLTFDQYAMGWYRQAPGKERELVAAISGSDSTYYADSVKGRFTISRDNAKNTVYLQMNSLKPEDTAVYYCAASGDYVNIITGERFDARLYDYWGQGTQVTVSS,low polyreactivity
21,QVHLVESGGGLVQAGGSLRLSCAASGRIFRYNAMGWYRQAPVKESELVAAISSIGGRTYYADSVKGRFTISRDNAKNTVYLQMNSLQPEDTAVYNCAALSYYVDGEYDYWGQGTQVTVSS,high polyreactivity
